{"source": "patent US20240209078A1", "binders": {"B1": {"name": "CH3 15-E11 CC×I2L×G4×scFc×G4×MS 15-B12 CC×I2L_GQ (SEQ ID NO 251) (bispecific antibody)", "chain": "QVQLVQSGAEVKKPGASVKVSCKASGYTFTNYWMNWVRQAPGQCLEWMGNIAYGVKGTNYNQKFQGRVTMTVDTSSSTAYMELSRLRSDDTAVYYCATRYFYVMDYWGQGTLVTVSSGGGGQGGGGQGGGGQDIQMTQSPSSLSASVGDRVTITCRASQDISNYLNWYQQKPGKVPKLLIYYTSRLHSGVPSRFSGSGSGTDFTLTISSLQPEDVATYYCVQYAQFPLTFGCGTKVEIKSGGGGQEVQLVESGGGLVQPGGSLKLSCAASGFTFNKYAMNWVRQAPGKGMEWVARIRSKYNNYATYYADAVKDRFTISRDDSKNTLYLQMNNLKTEDTAVYYCVRAGNFGSSYISYFAYWGQGTLVTVSSGGGGQGGGGQGGGGQQTVVTQEPSLTVSPGGTVTITCGSSTGAVTSGNYPNWIQKKPGQAPRGLIGGTKFLAPGTPARFSGSLEGGKAALTLSGVQPEDEAEYYCVLYYSNRWVFGSGTKLTVLGGGGCPPCPAPELLGGPSVFLFPPKPKDTLMISRTPEVTCVVVDVSHEEPEVKFNWYVDGVEVHNAKTKPCEEQYGSTYRCVSVLTVLHQDWLNGKEYKCKVSNKALPAPIEKTISKAKGQPREPQVYTLPPSREEMTKNQVSLTCLVKGFYPSDIAVEWESNGQPENNYKTTPPVLDSDGSFFLYSKLTVDKSRWQQGNVFSCSVMHEALHNHYTQKSLSLSPGKGGGGQGGGGQGGGGQGGGGQGGGGQGGGGQCPPCPAPELLGGPSVFLFPPKPKDTLMISRTPEVTCVVVDVSHEEPEVKFNWYVDGVEVHNAKTKPCEEQYGSTYRCVSVLTVLHQDWLNGKEYKCKVSNKALPAPIEKTISKAKGQPREPQVYTLPPSREEMTKNQVSLTCLVKGFYPSDIAVEWESNGQPENNYKTTPPVLDSDGSFFLYSKLTVDKSRWQQGNVFSCSVMHEALHNHYTQKSLSLSPGKGGGGQVQLQESGPGLVKPSETLSLTCTVSGGSISSSSYFWGWIRQPPGKCLEWIGNIYYSGSSNYNPSLKSRVTISVDTSKNQFSLKLSSVTAADTAVYYCARLPRGDRDAFDIWGQGTMVTVSSGGGGQGGGGQGGGGQDIVMTQSPSSLSASVGDRVTITCRASQGISNYLAWYQQKPGKVPKLLIYAASTLQSGVPSRFSGSGSGTDFTLTISSLQPEDFATYYCQQSYSTPFTFGCGTKVEIKSGGGGQEVQLVESGGGLVQPGGSLKLSCAASGFTFNKYAMNWVRQAPGKGMEWVARIRSKYNNYATYYADAVKDRFTISRDDSKNTLYLQMNNLKTEDTAVYYCVRAGNFGSSYISYFAYWGQGTLVTVSSGGGGQGGGGQGGGGQQTVVTQEPSLTVSPGGTVTITCGSSTGAVTSGNYPNWIQKKPGQAPRGLIGGTKFLAPGTPARFSGSLEGGKAALTLSGVQPEDEAEYYCVLYYSNRWVFGSGTKLTVL"}, "B2": {"name": "CH3 15-E11 VAG CC×I2L×G4×scFc×MS 15-B12 CC×I2L clipopt ID (SEQ ID NO 434) (bispecific antibody)", "chain": "B1 chain with K56A"}, "B3": {"name": "CH3 15-E11 CC × I2L × G4 × scFc × G4 × MS 15-B12 CC × I2L_GQ (bispecific antibody)", "chain": "B1 chain"}, "B4": {"name": "CH3 15-E11_1_VAG_CC × I2L × G4 × scFc × G4 × MS 15-B12 CC × I2L clipopt_DI (bispecific antibody)", "chain": "B1 chain with K56A"}}, "key": {"[1]": {"biological_target": "human MSLN (mesothelin) (human) (UniProt Q13421)", "test": "cell-based or functional assay"}, "[2]": {"biological_target": "human MSLN (mesothelin) (human) (UniProt Q13421)", "test": "cell-based or functional assay", "remark": "listed apart in the source"}, "human MSLN (human) [3]": {"biological_target": "human MSLN (human) (UniProt Q13421)", "test": "cell-based affinity, flow cytometry on target-transfected CHO cells, nonlinear regression (one site - specific binding), mean of three measurements"}, "human MSLN (human) [4]": {"biological_target": "human MSLN (human) (UniProt Q13421)", "test": "cell-based or functional assay"}}, "note": "Where a chain is given by its changes, count along the chain named. In names and notes the source's numbering stands. Where two headings read alike, the source gives them in different places.", "data": [{"binder": "B1", "values": [{"measurement": "cytotoxicity EC50, GSU KO CDH3 cells", "setting": "[1]", "value": 512, "unit": "pM"}, {"measurement": "cytotoxicity EC50, E:T ratio 1:1, GSU KO CDH3 cells", "setting": "[2]", "value": 108, "unit": "pM"}, {"measurement": "cytotoxicity EC50, E:T ratio 1:2, GSU KO CDH3 cells", "setting": "[2]", "value": 446, "unit": "pM"}, {"measurement": "cytotoxicity EC50, E:T ratio 10:1, GSU KO CDH3 cells", "setting": "[2]", "value": 39.6, "unit": "pM"}, {"measurement": "cytotoxicity EC50, GSU KO CDH3 cells", "setting": "[2]", "value": 512, "unit": "pM"}, {"measurement": "cytotoxicity EC50, HCT 116 KO CDH3 cells", "setting": "[2]", "value": 51.8, "unit": "pM"}]}, {"binder": "B2", "values": [{"measurement": "cytotoxicity EC50, GSU KO CDH3 cells", "setting": "[2]", "value": 75.2, "unit": "pM"}, {"measurement": "cytotoxicity EC50, HCT 116 KO CDH3 cells", "setting": "[2]", "value": 5.9, "unit": "pM"}]}, {"binder": "B3", "values": [{"measurement": "Kd", "setting": "human MSLN (human) [3]", "value": 33800, "unit": "pM"}, {"measurement": "EC50 (cytotoxicity) on double positive cells; column head printed 'EC50 CHO hu CDH3 (+) & MSLN (+)'; value is that of HCT 116 wt in Table 46", "setting": "human MSLN (human) [4]", "value": 0.071, "unit": "pM"}, {"measurement": "EC50 (cytotoxicity); column head printed 'EC50 CHO hu CDH3 (+)', table title HCT 116; value is that of HCT 116 KO CDH3 in Table 46", "setting": "human MSLN (human) [4]", "value": 51.8, "unit": "pM"}, {"measurement": "EC50 on HCT 116 KO CDH3 (cytotoxicity; cells CDH3-, MSLN+)", "setting": "human MSLN (human) [4]", "value": 51.8, "unit": "pM"}, {"measurement": "EC50 on HCT 116 wt (cytotoxicity; cells CDH3+, MSLN+)", "setting": "human MSLN (human) [4]", "value": 0.07, "unit": "pM"}, {"measurement": "fold gap of column 6 (HCT 116 KO CDH3 by Table 46) against double positive cells", "setting": "human MSLN (human) [4]", "value": 727, "unit": "fold"}]}, {"binder": "B4", "values": [{"measurement": "Kd", "setting": "human MSLN (human) [3]", "value": 40000, "unit": "pM"}]}]}
